# In patent US9081020B2, “Mutant proteins and methods for selecting them” (Heptares Therapeutics Limited, priority 2008, dated 2015):
# Read-outs that look alike come from different tables or passages of the source.
# B1: M145A: Ala-mutant in the transmembrane region of the M1 mAChR (protein)
# chain: MNTSAPPAVSPNITVLAPGKGPWQVAFIGITTGLLSLATVTGNLLVLISFKVNTELKTVNNYFLLSLACADLIIGTFSMNLYTTYLLMGHWALGTLACDLWLALDYVASNASVMNLLLISFDRYFSVTRPLSYRAKRTPRRAALAIGLAWLVSFVLWAPAILFWQYLVGERTVLAGQCYIQFLSQPIITFGTAMAAFYLPVTVMCTLYWRIYRETENRARELAALQGSETPGKGGGSSSSSERSQPGAEGSPETPPGRCCRCCRAPRLLQAYSWKEEEEEDEGSMESLTSSEGEEPGSEVVIKMPMVDPEAQAPTKQPPRSSPNTVKRPTKKGRDRAGKGQKPRGKEQLAKRKTFSLVKEKKAARTLSAILLAFILTWTPYNIMVLVSTFCKDCVPETLWELGYWLCYVNSTINPMCYALCNKAFRDTFRLLLLCRWDKRRWRKIPKRPGSVHRTPSRQC
# B2: L65A + M145A: M1 mAChR double mutant (protein)
# chain: MNTSAPPAVSPNITVLAPGKGPWQVAFIGITTGLLSLATVTGNLLVLISFKVNTELKTVNNYFLASLACADLIIGTFSMNLYTTYLLMGHWALGTLACDLWLALDYVASNASVMNLLLISFDRYFSVTRPLSYRAKRTPRRAALAIGLAWLVSFVLWAPAILFWQYLVGERTVLAGQCYIQFLSQPIITFGTAMAAFYLPVTVMCTLYWRIYRETENRARELAALQGSETPGKGGGSSSSSERSQPGAEGSPETPPGRCCRCCRAPRLLQAYSWKEEEEEDEGSMESLTSSEGEEPGSEVVIKMPMVDPEAQAPTKQPPRSSPNTVKRPTKKGRDRAGKGQKPRGKEQLAKRKTFSLVKEKKAARTLSAILLAFILTWTPYNIMVLVSTFCKDCVPETLWELGYWLCYVNSTINPMCYALCNKAFRDTFRLLLLCRWDKRRWRKIPKRPGSVHRTPSRQC
# B3: L65A + L151A: M1 mAChR double mutant (protein)
# chain: MNTSAPPAVSPNITVLAPGKGPWQVAFIGITTGLLSLATVTGNLLVLISFKVNTELKTVNNYFLASLACADLIIGTFSMNLYTTYLLMGHWALGTLACDLWLALDYVASNASVMNLLLISFDRYFSVTRPLSYRAKRTPRRAALMIGLAWAVSFVLWAPAILFWQYLVGERTVLAGQCYIQFLSQPIITFGTAMAAFYLPVTVMCTLYWRIYRETENRARELAALQGSETPGKGGGSSSSSERSQPGAEGSPETPPGRCCRCCRAPRLLQAYSWKEEEEEDEGSMESLTSSEGEEPGSEVVIKMPMVDPEAQAPTKQPPRSSPNTVKRPTKKGRDRAGKGQKPRGKEQLAKRKTFSLVKEKKAARTLSAILLAFILTWTPYNIMVLVSTFCKDCVPETLWELGYWLCYVNSTINPMCYALCNKAFRDTFRLLLLCRWDKRRWRKIPKRPGSVHRTPSRQC
# B4: L151A: Ala-mutant in the transmembrane region of the M1 mAChR (protein)
# chain: MNTSAPPAVSPNITVLAPGKGPWQVAFIGITTGLLSLATVTGNLLVLISFKVNTELKTVNNYFLLSLACADLIIGTFSMNLYTTYLLMGHWALGTLACDLWLALDYVASNASVMNLLLISFDRYFSVTRPLSYRAKRTPRRAALMIGLAWAVSFVLWAPAILFWQYLVGERTVLAGQCYIQFLSQPIITFGTAMAAFYLPVTVMCTLYWRIYRETENRARELAALQGSETPGKGGGSSSSSERSQPGAEGSPETPPGRCCRCCRAPRLLQAYSWKEEEEEDEGSMESLTSSEGEEPGSEVVIKMPMVDPEAQAPTKQPPRSSPNTVKRPTKKGRDRAGKGQKPRGKEQLAKRKTFSLVKEKKAARTLSAILLAFILTWTPYNIMVLVSTFCKDCVPETLWELGYWLCYVNSTINPMCYALCNKAFRDTFRLLLLCRWDKRRWRKIPKRPGSVHRTPSRQC
# B5: C69A: Ala-mutant in the transmembrane region of the M1 mAChR (protein)
# chain: MNTSAPPAVSPNITVLAPGKGPWQVAFIGITTGLLSLATVTGNLLVLISFKVNTELKTVNNYFLLSLAAADLIIGTFSMNLYTTYLLMGHWALGTLACDLWLALDYVASNASVMNLLLISFDRYFSVTRPLSYRAKRTPRRAALMIGLAWLVSFVLWAPAILFWQYLVGERTVLAGQCYIQFLSQPIITFGTAMAAFYLPVTVMCTLYWRIYRETENRARELAALQGSETPGKGGGSSSSSERSQPGAEGSPETPPGRCCRCCRAPRLLQAYSWKEEEEEDEGSMESLTSSEGEEPGSEVVIKMPMVDPEAQAPTKQPPRSSPNTVKRPTKKGRDRAGKGQKPRGKEQLAKRKTFSLVKEKKAARTLSAILLAFILTWTPYNIMVLVSTFCKDCVPETLWELGYWLCYVNSTINPMCYALCNKAFRDTFRLLLLCRWDKRRWRKIPKRPGSVHRTPSRQC
# B6: I119A: Ala-mutant in the transmembrane region of the M1 mAChR (protein)
# chain: MNTSAPPAVSPNITVLAPGKGPWQVAFIGITTGLLSLATVTGNLLVLISFKVNTELKTVNNYFLLSLACADLIIGTFSMNLYTTYLLMGHWALGTLACDLWLALDYVASNASVMNLLLASFDRYFSVTRPLSYRAKRTPRRAALMIGLAWLVSFVLWAPAILFWQYLVGERTVLAGQCYIQFLSQPIITFGTAMAAFYLPVTVMCTLYWRIYRETENRARELAALQGSETPGKGGGSSSSSERSQPGAEGSPETPPGRCCRCCRAPRLLQAYSWKEEEEEDEGSMESLTSSEGEEPGSEVVIKMPMVDPEAQAPTKQPPRSSPNTVKRPTKKGRDRAGKGQKPRGKEQLAKRKTFSLVKEKKAARTLSAILLAFILTWTPYNIMVLVSTFCKDCVPETLWELGYWLCYVNSTINPMCYALCNKAFRDTFRLLLLCRWDKRRWRKIPKRPGSVHRTPSRQC
# B7: L65G: M1 mAChR mutant L65G recovered by randomisation of the codon for position 65 (protein)
# chain: MNTSAPPAVSPNITVLAPGKGPWQVAFIGITTGLLSLATVTGNLLVLISFKVNTELKTVNNYFLGSLACADLIIGTFSMNLYTTYLLMGHWALGTLACDLWLALDYVASNASVMNLLLISFDRYFSVTRPLSYRAKRTPRRAALMIGLAWLVSFVLWAPAILFWQYLVGERTVLAGQCYIQFLSQPIITFGTAMAAFYLPVTVMCTLYWRIYRETENRARELAALQGSETPGKGGGSSSSSERSQPGAEGSPETPPGRCCRCCRAPRLLQAYSWKEEEEEDEGSMESLTSSEGEEPGSEVVIKMPMVDPEAQAPTKQPPRSSPNTVKRPTKKGRDRAGKGQKPRGKEQLAKRKTFSLVKEKKAARTLSAILLAFILTWTPYNIMVLVSTFCKDCVPETLWELGYWLCYVNSTINPMCYALCNKAFRDTFRLLLLCRWDKRRWRKIPKRPGSVHRTPSRQC
# Tested on: M1 mAChR
# Type: physicochemical
# Conditions: for stability relative to wild-type (retention of bound 3H-NMS), in words: BOG or DDM; for % 3H-NMS retained BOG / % loss/wt / mean % retained: 0.82% BOG, 4° C., 3 h; for % 3H-NMS retained BOG: whole E. coli BL21 cells, single culture; for % loss/wt: % loss relative to wild-type control; for mean % retained: mean of the cultures
# Description: This concentration was determined by analysing wild-type M1 mAChRs expressed in the inner cell membranes of intact E. Coli strain BL21 cells. The cells were pre-labelled with the radiolabelled antagonist 3H—N-methyl scopolamine and resuspended to a pre-determined cell density (Absorbance at 600 nm=2.0) in a chosen buffer (in this case 50 mM sodium phosphate, 1 mM EDTA, pH 7.5). […] The wild-type M1 mAChRs were titrated by the addition of increasing concentrations of beta octyl glucoside dissolved in the same buffer for different times (e.g. 1 h, 2 h, 3 h, 5 h, 15 h) and at different temperatures (e.g. 4° C., 15° C.). The loss of specifically-bound radioligand was then measured after recovering the cells by centrifugation (15000×g, 15 min.). In the example, the centrifugation step was performed on duplicate 1 ml aliquots of the cells. The experiment was repeated 3 times. […] It will be appreciated that the cell density, detergent concentration and other parameters of the assay may be varied to adjust the loss of activity as appropriate.
# (a) A state of in-situ destabilisation of a particular membrane protein in a particular cell membrane as a result of the addition of a particular concentration of a particular detergent, can be defined by the loss of the characteristic specific ligand binding activity of the membrane protein for a particular ligand of interest in the presence of a defined concentration of a particular detergent molecule or other solubilising agent.
# A preferred version of the assay is destabilisation of a membrane protein-ligand complex in a detergent-enriched membrane. The membrane protein, either in a membrane preparation, or in intact cells in-vivo or ex-vivo, is pre-incubated with a labelled version of the ligand, the label, for instance, being a radioactive label, or a fluorescent label, and the binding step preferably being allowed to proceed to equilibrium, defined as the achievement of a time-invariant level of binding. To define membrane protein-independent, or non-specific, binding the binding step is performed with the addition of a second non-labelled ligand, called the competing ligand, having an appropriate membrane protein-specific pharmacology, at a concentration sufficient fully to occupy the binding sites of the membrane protein and thereby exclude the binding of the labelled ligand. The difference between the binding of the labelled ligand in the absence and presence of the competing ligand is defined as the specific binding of the labelled ligand. Measurement of binding requires a suitable method for separating and measuring bound ligand. Characteristically, this involves centrifugation of intact cells or membranes for a time and at a centrifugal force adequate to pellet them (for instance, 15000×g for 15 min in the case of E. coli cells, or 100,000×g for plasma membrane preparations), or filtration of a membrane suspension e.g. through a suitable filter paper such as glass fibre paper e.g. GF-B or GF-C followed by counting of radioactivity. Alternatively, it might involve the measurement of an optical signal such as enhancement of fluorescence emission in the case of fluorescent ligands.
# To perform the in-situ destabilisation assay, a pre-determined concentration of the detergent or other destabilising agent of choice is mixed with a membrane or cell suspension containing the pre-labelled membrane protein in an appropriate buffer composition at a particular temperature and for a particular time, determined as described below.
Molecule,"stability relative to wild-type (retention of bound 3H-NMS), in words",% loss/wt,mean % retained [%],also measured
B1,smaller enhancements,–,–,–
B2,–,0.34,82,% 3H-NMS retained BOG (listed as L65A + M145A 1): 91%; % 3H-NMS retained BOG (listed as L65A + M145A 2): 73%
B3,–,0.51,73,% 3H-NMS retained BOG (listed as L65A + L151A 1): 70%; % 3H-NMS retained BOG (listed as L65A + L151A 2): 76%
B4,smaller enhancements,–,–,–
B5,reductions,–,–,–
B6,reductions,–,–,–
B7,–,1.06,44,% 3H-NMS retained BOG (listed as L65 G 1): 49%; % 3H-NMS retained BOG (listed as L65 G 2): 39%
